The chains are these.
B1: OR4K15 (parent)
chain: GUUAACGGUCAUAGGCCAUGGAAACUAGGAGCACCAUUUCGCUGCCAGUGAAGAAAUGAACAAAGAAAAUCUGGGCCAGGCAGGCAUCAAAAGAAAUAGUCUUGCGCUCAACCAGAAAGUCUGUAAUCAUUUUAAGGGUA

These results are taken from the RNAGym collection of RNA variant scans (doi:10.7554/elife.90254).

This data set covers variants of B1. Briefly: self-cleavage, relative activity (ratio to wild type); higher = more cleavage; in vitro, sequencing; the parent is a self-cleaving ribozyme.
For A52C A95G, the self-cleavage worked out at 1.94.

Take A22G G138U: the self-cleavage turned out to be 0.66.

For A95G A134G, the self-cleavage was determined as 1.89.

In the case of A27G A95C, the self-cleavage came out at 0.48.

Turning to A5U U19C, the self-cleavage amounted to 1.4.

Turning to U49C C85G, the self-cleavage is 1.62.

For U70A U130C, the self-cleavage was 0.61.

For the variant A13C U132C, the self-cleavage turned out to be 1.06.

For A64G, the self-cleavage worked out at 1.2.

For A13U C105U, the self-cleavage was 0.23.

As for A5G G106C, the self-cleavage turned out to be 0.08.

Regarding U39A C112G, the self-cleavage came out at 0.

As to G44A A68G, the self-cleavage was 1.81.

A22G G75C: the self-cleavage is 0.37.

For the variant A78U U133C, the self-cleavage turned out to be 0.37.

For C112U A117G, the self-cleavage came to 0.01.

As for A55G A98U, the self-cleavage was found to be 1.21.

As to U49C A86C, the self-cleavage worked out at 0.78.

In the case of A55G U100C, the self-cleavage came out at 1.93.

For U12A C34U, the self-cleavage stood at 0.53.

Regarding U127C U132C, the self-cleavage amounted to 0.86.

As for A5U A47G, the self-cleavage was determined as 1.

Regarding A55G C88U, the self-cleavage is 1.02.

U39G A62G: the self-cleavage amounted to 1.3.

Consider C40A A64G, for which the self-cleavage is 2.37.

For the variant A22U G65U, the self-cleavage was determined as 0.33.

As for A129G U130C, the self-cleavage is 1.73.

As to A23G U100A, the self-cleavage turned out to be 0.74.

With A47C A114G, the self-cleavage was 0.3.

For U38C U139A, the self-cleavage amounted to 1.75.

For A68G U122C, the self-cleavage was found to be 1.18.

U97C U120A: the self-cleavage was found to be 0.31.

Consider A55G U133C, for which the self-cleavage was found to be 1.83.

In the case of U9C A95G, the self-cleavage was found to be 1.88.

As for A95G A111G, the self-cleavage came to 0.03.

As to A22G U87C, the self-cleavage was 1.28.

As for A22U U103C, the self-cleavage was 1.66.

Turning to U19G A47U, the self-cleavage came out at 1.08.

On to U49C U133A, for which the self-cleavage amounted to 1.29.

For the variant A67G A68C, the self-cleavage was determined as 0.53.

As for A27G A30U, the self-cleavage worked out at 1.61.

In the case of A54U A96G, the self-cleavage was determined as 1.68.

As for A60G A140G, the self-cleavage amounted to 1.21.

As to A11G U19C, the self-cleavage was determined as 0.56.

Turning to G53U C112U, the self-cleavage came out at 0.01.

Turning to A63G U87G, the self-cleavage worked out at 1.35.

Take A59U A89U: the self-cleavage came to 2.6.

On to A89C A116U, for which the self-cleavage is 0.32.

In the case of U100C G123A, the self-cleavage was 2.36.

Turning to G15A U72C, the self-cleavage is 0.37.

U132C A134U: the self-cleavage was found to be 1.49.

In the case of C40U U108C, the self-cleavage was determined as 0.02.

Take G48A A68G: the self-cleavage was determined as 1.7.

Take A11C A52U: the self-cleavage is 1.5.

U2C C61U: the self-cleavage was determined as 1.77.

Turning to A82U U108A, the self-cleavage was 0.03.

On to A114U U127A, for which the self-cleavage worked out at 0.03.

For the variant A47G A55G, the self-cleavage is 0.59.

With G15U A69G, the self-cleavage came out at 1.46.

A82C A125U: the self-cleavage was found to be 0.

On to A125G, for which the self-cleavage is 0.56.

For C71U A114G, the self-cleavage worked out at 0.05.

Turning to U70C A140U, the self-cleavage stood at 0.96.

For U37C U131C, the self-cleavage came to 1.15.

Take A64G A98C: the self-cleavage amounted to 1.73.

On to U19A A66G, for which the self-cleavage is 1.27.

C10U G31U: the self-cleavage stood at 1.22.

With A33C A68U, the self-cleavage is 2.07.

Regarding A23G A89C, the self-cleavage was 1.98.

As for A33C U87A, the self-cleavage came out at 1.18.

As to A86G U100A, the self-cleavage came to 0.41.

For the variant A52G U72A, the self-cleavage was determined as 0.4.

Consider U2C A86U, for which the self-cleavage came out at 2.13.

On to A96G A111U, for which the self-cleavage came out at 0.11.

As for A96G U124C, the self-cleavage worked out at 1.22.

As for U38C U39C, the self-cleavage was determined as 1.64.

As to U87C U132A, the self-cleavage turned out to be 0.81.

As for U97C U102A, the self-cleavage came out at 0.47.

As for G44A A125C, the self-cleavage came out at 1.48.

For the variant C88U, the self-cleavage came out at 1.83.

As for U37C A55U, the self-cleavage came to 1.57.

For A52G A55G, the self-cleavage came to 0.97.

Turning to A18U A129G, the self-cleavage was determined as 1.24.

As to U3C U132G, the self-cleavage is 0.36.

Regarding A30G U87A, the self-cleavage worked out at 0.88.

For A68C A110G, the self-cleavage came out at 0.16.

Regarding A95G C101U, the self-cleavage was 1.28.

As for A30U G119A, the self-cleavage came out at 2.38.

For A96G U132G, the self-cleavage amounted to 1.85.

For G7A A62U, the self-cleavage is 1.38.

On to A11G A129U, for which the self-cleavage came out at 0.45.

On to A55G A94G, for which the self-cleavage was found to be 1.39.

Turning to A89G G106A, the self-cleavage was determined as 0.01.

Regarding A18G A95G, the self-cleavage stood at 1.38.

On to G29U A111G, for which the self-cleavage was found to be 0.05.

As to A4U A30U, the self-cleavage came out at 1.05.

Consider A27U U130C, for which the self-cleavage stood at 1.07.

Take U9C C16U: the self-cleavage is 1.59.

With C71A U120C, the self-cleavage was determined as 0.24.

Consider U19C U39C, for which the self-cleavage stood at 1.7.

As for A56G U122A, the self-cleavage was 0.63.

For the variant A66U C81U, the self-cleavage came to 0.05.

On to A24G G138A, for which the self-cleavage came to 1.18.

With A22G C35A, the self-cleavage turned out to be 1.2.

On to U100C A114G, for which the self-cleavage amounted to 1.34.

As to U72C A90G, the self-cleavage was determined as 0.54.

For the variant A51U G104A, the self-cleavage came to 0.01.

A67G U131C: the self-cleavage is 1.2.

On to U49G A95G, for which the self-cleavage was determined as 1.28.

On to A68G U87A, for which the self-cleavage turned out to be 0.96.

A90G A135U: the self-cleavage is 0.39.

Take A33C A64C: the self-cleavage turned out to be 1.61.

For the variant U37A A69U, the self-cleavage was determined as 1.92.

In the case of U9C A27G, the self-cleavage was 1.55.

Consider U26C U72C, for which the self-cleavage was 0.07.

For U100C A140G, the self-cleavage came out at 2.28.

A69C: the self-cleavage was 1.05.

Consider U26C A114G, for which the self-cleavage turned out to be 0.04.

For the variant A78C A86U, the self-cleavage is 0.19.

U26C A62G: the self-cleavage was found to be 1.47.

In the case of U39C A67G, the self-cleavage came out at 1.24.

For A60U G136A, the self-cleavage is 1.51.

For the variant G31C, the self-cleavage is 1.79.

On to G15A U43C, for which the self-cleavage amounted to 1.35.

Regarding A62G U87A, the self-cleavage turned out to be 1.71.

Consider A52U A55G, for which the self-cleavage worked out at 1.07.

As for A22G U49A, the self-cleavage was 0.65.

Regarding A51G U127G, the self-cleavage stood at 1.9.

Turning to A23U U132C, the self-cleavage stood at 1.03.

In the case of U2C U57G, the self-cleavage is 0.66.

Turning to U2C U57C, the self-cleavage was 0.75.

In the case of A4G G20A, the self-cleavage came out at 0.82.

Consider C32U A96G, for which the self-cleavage is 0.99.

With A63G U132C, the self-cleavage came to 1.67.

As to U49A A51U, the self-cleavage is 1.63.

Regarding U2G A33G, the self-cleavage amounted to 0.43.

As for U39C A125U, the self-cleavage is 1.8.

As for A89G U127C, the self-cleavage amounted to 1.03.

As to U43C U100G, the self-cleavage was found to be 1.75.

For the variant A18U U49G, the self-cleavage was 1.01.

A110G A111U: the self-cleavage came out at 0.04.

Take U133C A134G: the self-cleavage is 0.26.

For U87C U139C, the self-cleavage worked out at 0.35.

With A47G A118U, the self-cleavage worked out at 0.67.

For U19C U139C, the self-cleavage is 1.58.

A91U A135U: the self-cleavage amounted to 1.6.

Take C16U A30G: the self-cleavage amounted to 1.27.

Turning to A18G U26A, the self-cleavage stood at 1.1.

Regarding C113U U131C, the self-cleavage was 0.

As for A51G U133C, the self-cleavage stood at 1.46.

Consider U2C A24G, for which the self-cleavage came out at 1.09.

In the case of G44C A52G, the self-cleavage amounted to 1.4.

Take C6A A60G: the self-cleavage amounted to 0.5.

Regarding C10A U37C, the self-cleavage is 1.

For the variant A18G C101U, the self-cleavage was determined as 0.85.

A63U A86G: the self-cleavage was 2.75.

For the variant G83A A135G, the self-cleavage was 1.3.

As for U2C A95G, the self-cleavage amounted to 1.53.

As to U108A A111G, the self-cleavage stood at 0.01.

As to U9C A117U, the self-cleavage is 1.04.

With A27G U133C, the self-cleavage was 1.58.

On to A22U A30C, for which the self-cleavage stood at 0.38.

Regarding A90U U130C, the self-cleavage worked out at 1.3.

Regarding A5U U120C, the self-cleavage was 0.76.

As for A55U A59G, the self-cleavage came out at 0.75.

On to A11G A98G, for which the self-cleavage turned out to be 0.33.

For the variant A11G U72C, the self-cleavage came to 0.21.
